# Measurements taken from patent US20200247894A1 (Regeneron, published 2020).
# How the values were obtained:
# [1] = target: T1, Human IL2Rγ extracellular domain expressed with a C-terminal myc-myc-hexahistidine tag (human); assay: SPR, captured mAb, 25C, dissociation pH 7.4
# T1 construct: also called hIL-2Rg-MMH; hIL-2RG-MMH
# T1 chain: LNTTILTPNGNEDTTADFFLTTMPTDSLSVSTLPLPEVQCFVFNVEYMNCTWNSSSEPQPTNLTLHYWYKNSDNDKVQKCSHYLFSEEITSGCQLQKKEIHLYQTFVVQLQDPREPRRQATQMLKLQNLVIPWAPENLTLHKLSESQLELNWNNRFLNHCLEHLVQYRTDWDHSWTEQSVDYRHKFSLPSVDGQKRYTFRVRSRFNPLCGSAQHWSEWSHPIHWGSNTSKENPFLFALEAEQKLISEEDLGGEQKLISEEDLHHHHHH
# Procedure: (§1) The dissociation rate constant (kd) for binding of IL-2Rγ reagents to purified anti-IL2Rγ monoclonal antibodies was determined using a real-time surface plasmon resonance based Biacore 4000 biosensor platform. […] The CM5 Biacore sensor surface derivatized by amine coupling with monoclonal mouse anti-human Fc antibody (GE, Catalog # BR-1008-39) was used to capture anti-IL2Rγ monoclonal antibodies expressed with human IgG4 Fc. All the IL2Rγ reagents were expressed with a C-terminal myc-myc-hexahistidine tag (subsequently referred to with a -MMH suffix). […] The dissociation of bound IL-2Rg-MMH was performed in PBS-T-pH7.4 or PBS-T-pH6.0 running buffers for 6 minutes.
# (§2) Dissociation rate constants (kd) in two running buffers were determined by fitting the real-time binding sensorgrams to a 1:1 binding model using Scrubber 2.0c curve-fitting software. Values of dissociation rate for […] mAb binding to hIL-2RG-MMH and mfIL-2RG-MMH at 25° C. and 37° C. in PBS-T-pH7.4 and PBS-T-pH6.0 is shown in Table 2-1 through Table 2-8.
# [2] = target: T2, Macaca fascicularis IL2Rγ extracellular domain expressed with a C-terminal myc-myc-hexahistidine tag (Macaca fascicularis); assay: SPR, captured mAb, 25C, dissociation pH 7.4
# T2 construct: also called mfIL-2Rg-MMH; mfIL-2RG-MMH
# T2 chain: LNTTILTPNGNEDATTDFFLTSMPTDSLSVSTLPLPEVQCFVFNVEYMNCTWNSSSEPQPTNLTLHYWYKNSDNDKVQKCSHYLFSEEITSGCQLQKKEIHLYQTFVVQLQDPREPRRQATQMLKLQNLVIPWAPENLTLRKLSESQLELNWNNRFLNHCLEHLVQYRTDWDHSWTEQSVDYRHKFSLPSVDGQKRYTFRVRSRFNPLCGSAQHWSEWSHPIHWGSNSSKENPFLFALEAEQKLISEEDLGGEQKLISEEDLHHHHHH
# Procedure: as §1, §2
# [3] = target: T1, Human IL2Rγ extracellular domain …; assay: SPR, captured mAb, 25C, dissociation pH 6.0
# Procedure: as §1, §2
# [4] = target: T2, Macaca fascicularis IL2Rγ extracellular …; assay: SPR, captured mAb, 25C, dissociation pH 6.0
# Procedure: as §1, §2
# [5] = target: T1, Human IL2Rγ extracellular domain …; assay: SPR, captured mAb, 37C, dissociation pH 7.4
# Procedure: as §1, §2
# [6] = target: T1, Human IL2Rγ extracellular domain …; assay: SPR, captured mAb, 37C, dissociation pH 6.0
# Procedure: as §1, §2
Binder,100 nM Ag Bound (RU) [1],koff [1],t1/2 [1],100 nM Ag Bound (RU) [2],koff [2],t1/2 [2],100 nM Ag Bound (RU) [3],koff [3],t1/2 [3],100 nM Ag Bound (RU) [4],koff [4],t1/2 [4],100 nM Ag Bound (RU) [5],koff [5],t1/2 [5],100 nM Ag Bound (RU) [6],koff [6],t1/2 [6]
"H4H12908P (antibody, human IgG4 S228P, kappa, V domains shown, anti-IL2Rgamma mAb expressed with human IgG4 Fc) VH: EVQLVESGGRLVQPGGSLRLSCEASGFTFSNYGMTWVRQAPGKGLEWVSVISGSDNRKYYAESVKGRFTISRDNSKNTLYLQMNSLRAEDTAVYYCAKLGYSRSSKDFYYGMDVWGQGTTVTVSS VL: not shown",31 RU,0.000177 s⁻¹,65 min,37 RU,0.000208 s⁻¹,56 min,34 RU,0.000505 s⁻¹,23 min,34 RU,0.000488 s⁻¹,24 min,54 RU,0.000671 s⁻¹,17 min,52 RU,0.00163 s⁻¹,7 min
"H4H13545P2 (antibody, human IgG4 S228P, kappa, V domains shown, anti-IL2Rgamma mAb expressed with human IgG4 Fc) VH: QVQLQQSGPGLVKPSQTLSLTCDISGDSVSSNIATWNWIRQSPSRGLEWLGRTYYRSKWYKDYAVSVKSRITINPDTSKNQFSLQVNSVTPEDTAVYYCARMTGPRYYFEYWGQGTLVTVSS VL: not shown",15 RU,0.0213 s⁻¹,0.5 min,30 RU,0.00751 s⁻¹,1.5 min,11 RU,0.0334 s⁻¹,0.3 min,20 RU,0.00935 s⁻¹,1.2 min,7 RU,–,–,6 RU,–,–
"H4H13544P2 (antibody, human IgG4 S228P, kappa, V domains shown, anti-IL2Rgamma mAb expressed with human IgG4 Fc) VH: QLQLQESGPGLVKPSETLSLTCTVSGGSISIKNYYWGWIRQPPGKGLEWIGSIYYSGTTYYNPSLKSRVTISVDTSKNQFSLKLSSVTAADTAVYHCARHGYSYGHGWFDPWGQGTLVTVSS VL: not shown",57 RU,0.000602 s⁻¹,19 min,67 RU,0.000584 s⁻¹,20 min,45 RU,0.00175 s⁻¹,7 min,52 RU,0.0017 s⁻¹,7 min,54 RU,0.0041 s⁻¹,2.8 min,39 RU,0.00827 s⁻¹,1.4 min

# Other lines, results leading:
100 nM Ag Bound (RU) [1],koff [1],t1/2 [1],100 nM Ag Bound (RU) [2],koff [2],t1/2 [2],100 nM Ag Bound (RU) [3],koff [3],t1/2 [3],100 nM Ag Bound (RU) [4],koff [4],t1/2 [4],100 nM Ag Bound (RU) [5],koff [5],t1/2 [5],100 nM Ag Bound (RU) [6],koff [6],t1/2 [6],Binder
118 RU,0.000174 s⁻¹,66 min,117 RU,0.000167 s⁻¹,69 min,96 RU,0.000568 s⁻¹,20 min,95 RU,0.000703 s⁻¹,16 min,158 RU,0.000668 s⁻¹,17 min,125 RU,0.00219 s⁻¹,5 min,"H4H12899P (antibody, human IgG4 S228P, kappa, V domains shown, anti-IL2Rgamma mAb expressed with human IgG4 Fc) VH: QVQLVESGGDLVKPGGSLRLSCATSGFTFSDFYMTWIRQAPGKGLEWISYISNSGSIVKYADSVKGRFTISRDNAKNSLYLQMNSLRAEDTAIYYCARFYGDRWGQGTLVTVSS VL: DIQLTQSPSFLSASVGDRVTITCWASQGISTFLAWYQQKPGKAPKLLIYAASTLQSGVPSRFSGSGSGTDFTLTISSLQPEDFATYHCQQLNNYPWTFGQGTKVEIKR"
130 RU,0.000175 s⁻¹,66 min,129 RU,0.000175 s⁻¹,66 min,101 RU,0.000692 s⁻¹,17 min,100 RU,0.000671 s⁻¹,17 min,162 RU,0.000711 s⁻¹,16 min,133 RU,0.00271 s⁻¹,4 min,"H4H12900P (antibody, human IgG4 S228P, kappa, V domains shown, anti-IL2Rgamma mAb expressed with human IgG4 Fc) VH: QVQLVESGGGLVKPGGSLRLSCEASGFTFNDFYMTWIRQAPGKGLEWIAYISKSGDKMRYADSVKGRFSTSRDNAKNSLSLQMNSLRAEDTAVYYCARFYGDIWGQGTLVTVSS VL: DIQLTQSPSFLSASVGDRVTITCWASQDISSFLVWYQQKPGKAPNLLIYAASALQSGVPSRFSGSGSGTEFTLTISSLQPEDFASYYCEQLNNYPWTFGQGTKVEIKR"
72 RU,0.000165 s⁻¹,70 min,80 RU,0.000222 s⁻¹,52 min,66 RU,0.000469 s⁻¹,25 min,69 RU,0.000497 s⁻¹,23 min,98 RU,0.000532 s⁻¹,22 min,95 RU,0.00158 s⁻¹,7 min,"H4H13541P (antibody, human IgG4 S228P, kappa, V domains shown, anti-IL2Rgamma mAb expressed with human IgG4 Fc) VH: EVQLVESGGGVVRPGGSLRLSCAASGFIFDDYDMSWVRQPPGRGLEWVSGIDWFGGTRGYADSMKGRFTISRDNAKNSLYLQMNSLRVEDTAFYYCARGGAIVGAVTPFDYWGQGTLVTVSS VL: DIQMTQSPSSLSASVGNRVTLSCRASQSINTYLSWYQQRPGKAPKLLIYAASSLQSGVPSRFSGSGAGTDFTLTISSLQPEDFATYYCQQSYSAPLTFGGGTKVEIKR"
72 RU,0.000192 s⁻¹,60 min,71 RU,0.000203 s⁻¹,57 min,64 RU,0.000636 s⁻¹,18 min,60 RU,0.000668 s⁻¹,17 min,90 RU,0.000661 s⁻¹,17 min,82 RU,0.00286 s⁻¹,4 min,"H4H12890P (antibody, human IgG4 S228P, kappa, V domains shown, anti-IL2Rgamma mAb expressed with human IgG4 Fc) VH: EVQLVESGGGLVQPGGSLRLSCAASGFTFNNYAMHWVRQAPGKGLEYVSSISSSGGSTYYEDSVKGRFTISRDNSKNTLYLQMGSLRAEDMAVYYCARSFYGSGTYYDTFDMWGQGTMVTVSS VL: DIQMTQSPSSLSASIGDRVTITCRASQSISRYLNWYQQKPGKAPKLLIYAASSLQSGVPSRFSASGSGTDFTLTISSLQPEDFATYYCQQSYSTPFTFGQGTKLEIKR"
